Data on 24 substances can be found in US20170226155A1.

Bounds are passed on as bounds.

Test [1] concerns the target Dipeptidyl amino peptidase type IV (DPP IV). Briefly: cell-based or functional assay.
Test [2] has as its target -. Briefly: enzyme inhibition (fluorescence); pH 2, +DPIV.
Test [3] deals with -. Nature of the test: enzyme inhibition (fluorescence); pH 7.6, +DPIV.
For test [4], the target named is -. Briefly: enzyme inhibition (fluorescence); pH 2, -DPIV.
In test [5] the target is -. Nature of the test: enzyme inhibition (fluorescence); pH 7.6, -DPIV.
The target in test [6] is DP IV. Nature of the test: enzyme inhibition (A410); pH 2, 30 minutes.
Test [7] deals with DP IV. Nature of the test: enzyme inhibition (A410); pH 2, 10 minutes.
For test [8], the target named is DP IV. Briefly: enzyme inhibition (A410); pH 8, 30 minutes.
In test [9] the target is DPP IV. Briefly: enzyme inhibition (A410); pH 2, 30 minutes.
Test [10] has as its target DPP IV. Nature of the test: enzyme inhibition (A410); pH 2, 10 minutes.
The target in test [11] is DPP IV. Briefly: enzyme inhibition (A410); pH 8, 30 minutes.
Test [12] addresses DPP IV. Briefly: enzyme inhibition (A410); pH 8, 10 minutes.
The target in test [13] is -. Nature of the test: enzyme inhibition (A410); pH 2.
The target in test [14] is -. Briefly: enzyme inhibition (A410); pH 8.
Test [15] addresses -. Briefly: enzyme inhibition (A410); pH 12.

In turn, AibAlaValboroPro (peptide) had an IC50 at ten minutes, pH 2 in test [1] of 2 µM.
For the substance AspProGlyboroLeu, the IC50 was found to be 108 nM with - [2], 93 nM with - [3], 232 nM with - [4] and 234 nM with - [5].
In the case of ChgAib-EthylGly-boroPro, the IC50 with DP IV [6] was 2100 nM; with DP IV [7], 13000 nM; with DP IV [8] it was 3200 nM.
Take ChgAla-tBugboroPro: the IC50 with DPP IV [9], with DPP IV [10], with DPP IV [11] and in the test with DPP IV [12] was greater than 22000 nM throughout.
As to ChgAlaEtgboroAla (peptide), in [1], the IC50 at ten minutes, pH 2 came to 1.3 µM and the IC50 at ten minutes, pH 8 came out at 2.5 µM.
The corresponding values for ChgAlaEtgboroPro (peptide) are 600 nM and 802 nM.
In the case of ChgAlaProboroPro (peptide), in [1], the IC50, pH 2 (Tetrapeptide Prodrugs) stood at 2 mM; the IC50, pH 8 (Tetrapeptide Prodrugs) amounted to 30 mM; the IC50 at ten minutes, pH 2 is 2 µM; the half-maximal inhibitory concentration (IC50) at ten minutes, pH 8 worked out at 30 µM.
For ChgAlaValboroPro (peptide) the same measures were 190 nM, 360 nM, 190 nM and 360 nM.
In test [1], ChgAzeEtgboroPro (peptide) gave an IC50 at ten minutes, pH 2 of 15 nM and an IC50 at ten minutes, pH 8 of 16 nM.
For ChgDhpEtgboroPro (peptide) the same measures were 15 nM and 17 nM.
The corresponding values for ChgHypEtgboroPro (peptide) are 17 nM and 25 nM.
The corresponding values for ChgPipEtgboroPro (peptide) are 19 nM and 14 nM.
For ChgProChgboroAla (peptide), in test [1], the IC50, pH 2 (Tetrapeptide Prodrugs) worked out at 180 nM; the IC50, pH 8 (Tetrapeptide Prodrugs) is 170 nM; the 50% inhibitory concentration (IC50) at ten minutes, pH 2 amounted to 180 nM; the IC50 at ten minutes, pH 8 turned out to be 170 nM.
Turning to ChgProChgboroPro (peptide), in [1], the IC50 at ten minutes, pH 2 turned out to be 14 nM and the IC50 at ten minutes, pH 8 is 14 nM.
In the case of ChgProEtgboroPro (peptide), in test [1], the IC50 at ten minutes, pH 2 worked out at 12 nM and the IC50 at ten minutes, pH 8 came out at 14 nM.
As to ChgProtBugboroAla (peptide), in test [1], the IC50 at ten minutes, pH 2 came to 6.8 µM and the IC50 at ten minutes, pH 8 came to 8.4 µM.
The corresponding values for ChgProtBugboroPro (peptide) are 1.5 µM and 8 µM.
The corresponding values for ChgThz4EtgboroPro (peptide) are 13 nM and 16 nM.
Regarding “Cyclohexylglycine-Proline-Ala-boroProline (peptide)”, in test [1], the IC50, pH 2 (Tetrapeptide Prodrugs) is 19 nM; the IC50, pH 8 (Tetrapeptide Prodrugs) stood at 15 nM; the IC50 at ten minutes, pH 2 is 17 nM; the IC50 at ten minutes, pH 8 came to 17 nM.
On to “Cyclohexylglycine-Proline-Valine-boroProline (peptide)”, for which, in test [1], the IC50, pH 2 (Tetrapeptide Prodrugs) came to 65 nM; the IC50, pH 8 (Tetrapeptide Prodrugs) came out at 72 nM; the IC50 at ten minutes, pH 2 worked out at 70 nM; the IC50 at ten minutes, pH 8 was determined as 70 nM.
In the case of “N-Me-Gly-3,4 dehydroproline-ALA-PRO boronic acid (peptide)”, in [1], the IC50 at ten minutes, pH 2 stood at 39 nM and the IC50 at ten minutes, pH 8 stood at 34 nM.
As for Propyl Gly-boro-Pro, the half-inhibitory concentration (IC50) in the test with - [13] came to 2.5 nM; with - [14], 2800 nM; in the test with - [15] it was 200 nM.
In test [1], tBugProAlaboroPro (peptide) returned an IC50 at ten minutes, pH 2 of 14 nM and an IC50 at ten minutes, pH 8 of 18 nM.
Take tert-Butyl Gly-boro-Pro: the IC50 in the test with - [13] came out at 3.4 nM; with - [14], 300 nM; with - [15] it was 19 nM.
